Target: DR6 ECD-Halo (UniProt O75509)
Experiment: single-molecule dual-color photobleaching

Sequence of DR6 ECD-Halo (O75509 42-349): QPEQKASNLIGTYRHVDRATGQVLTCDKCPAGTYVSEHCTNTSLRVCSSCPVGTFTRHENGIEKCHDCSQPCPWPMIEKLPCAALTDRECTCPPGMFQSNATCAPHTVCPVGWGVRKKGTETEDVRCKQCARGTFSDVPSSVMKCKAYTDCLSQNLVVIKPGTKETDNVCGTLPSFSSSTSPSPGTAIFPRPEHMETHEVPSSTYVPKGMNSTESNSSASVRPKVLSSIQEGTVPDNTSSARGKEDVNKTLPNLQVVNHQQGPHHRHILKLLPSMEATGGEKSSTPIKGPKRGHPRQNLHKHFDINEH

- stoichiometry N: 1
Substance: RBP4-SNAP (from UniProt P02753 19-201) (ligand)
